According to patent US20260055205A1 (published 2026):

What was measured:
human PSMA [1] = target: T1, human PSMA (human, UniProt Q04609 44-750, limits assumed); assay: binding screen
T1 construct: also called huPSMA; hPSMA

huCD3e-Fc = huCD3e-Fc (human, UniProt P07766 23-126); assay: Octet, purified
Method: (§1) Pool 2 consisted of paTCE molecules each containing PSMA.262 and one of 64 CD3.23 mutation combination variants. Stability and affinity of the individually expressed molecules in the form of crude lysate was evaluated by Octet. […] The binding of these anti-CD3 molecules (CD3.227, CD3.228, CD3.229 and CD3.230) to human and cynomolgus CD3 was measured by Octet and the Tm was measured by Differential Scanning Fluorimetry. All variants were paired with PSMA.262 except for CD3.23 which was paired with PSMA.5.

cyCD3e-Fc = target: T2, cyCD3e-Fc (cynomolgus monkey, UniProt Q95LI5 22-117); assay: Octet, purified
T2 sequence (looked up): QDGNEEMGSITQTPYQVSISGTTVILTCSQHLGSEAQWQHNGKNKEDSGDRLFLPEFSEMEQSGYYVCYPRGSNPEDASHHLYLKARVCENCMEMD
Method: as §1

human CD3 epsilon [2] = target: T3, human CD3 epsilon (human, UniProt P07766 23-126, limits assumed); assay: Octet, crude lysate
T3 construct: also called huCD3e
Procedure, shortened: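 Octet binding of the anti-CD3 paTCE molecules was measured to cynomolgus CD3e-Fc with purified material and to human CD3 epsilon with crude lysate. Every variant carried PSMA.262 except CD3.23, which carried PSMA.5.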

human PSMA [3] = target: T1, human PSMA; assay: BLI or SPR
cynomolgus monkey PSMA = target: T4, cynomolgus monkey PSMA (cynomolgus monkey, UniProt A0A2K5VNZ0 44-750); assay: BLI or SPR
T4 construct: also called cyPSMA; cyno PSMA

human CD3 epsilon [4] = target: T3, human CD3 epsilon; assay: BLI or SPR
[5] = target: T5, cynomolgus monkey CD3 epsilon (cynomolgus monkey, UniProt Q95LI5 22-117, limits assumed); assay: BLI or SPR
T5 construct: also called cyCD3e; cyno CD3
T5 sequence (looked up): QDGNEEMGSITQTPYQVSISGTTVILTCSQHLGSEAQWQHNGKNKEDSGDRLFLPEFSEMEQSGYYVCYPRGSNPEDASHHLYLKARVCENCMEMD

human PSMA [6] = target: T1, human PSMA; assay: binding kinetics, uTCE

huCD3e-Fc, sequence (P07766 23-126): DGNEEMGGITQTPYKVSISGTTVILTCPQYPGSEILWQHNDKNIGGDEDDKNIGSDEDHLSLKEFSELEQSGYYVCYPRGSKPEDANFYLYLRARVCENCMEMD
T3 sequence (P07766 23-126 limits assumed): as the sequence (P07766 23-126) above
T1 sequence (Q04609 44-750 limits assumed): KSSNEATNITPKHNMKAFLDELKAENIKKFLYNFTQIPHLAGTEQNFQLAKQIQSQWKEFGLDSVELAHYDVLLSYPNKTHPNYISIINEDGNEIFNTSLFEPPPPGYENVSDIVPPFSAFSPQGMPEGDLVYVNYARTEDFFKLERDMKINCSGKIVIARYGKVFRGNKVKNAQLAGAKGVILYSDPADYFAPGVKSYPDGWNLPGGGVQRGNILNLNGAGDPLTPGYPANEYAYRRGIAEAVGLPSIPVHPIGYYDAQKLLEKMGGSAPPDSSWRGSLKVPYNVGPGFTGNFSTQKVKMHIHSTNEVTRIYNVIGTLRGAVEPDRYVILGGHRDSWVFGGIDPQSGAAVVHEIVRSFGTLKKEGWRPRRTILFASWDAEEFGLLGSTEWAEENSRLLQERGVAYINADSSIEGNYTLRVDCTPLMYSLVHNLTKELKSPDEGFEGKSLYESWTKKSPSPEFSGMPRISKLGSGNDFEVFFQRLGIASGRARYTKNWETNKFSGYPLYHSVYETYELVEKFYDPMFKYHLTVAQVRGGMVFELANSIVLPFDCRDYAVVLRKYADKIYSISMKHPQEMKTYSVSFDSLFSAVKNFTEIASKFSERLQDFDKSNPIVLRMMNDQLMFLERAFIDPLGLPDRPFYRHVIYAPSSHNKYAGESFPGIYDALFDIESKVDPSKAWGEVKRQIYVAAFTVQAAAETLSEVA

B1: AC2717 (PSMA.5 with CD3.23) (bispecific antibody, V domains shown)
VHH: QVQLVESGGGVVQPGRSLRLSCAASGRTFGIYVMGWVRQAPGKEREFVAAISWSGSNRLVSDSVKGRFTISRDNSKNTLYLQMNSLRAEDTAVYYCAASNRLYGRTWYDFNESDYWGQGTQVTVSS
VL: ELVVTQEPSLTVSPGGTVTLTCRSSNGAVTSSNYANWVQQKPGQAPRGLIGGTNKRAPGTPARFSGSLLGGKAALTLSGVQPEDEAVYYCALWYPNLWVFGGGTKLTVL
VH: EVQLLESGGGIVQPGGSLKLSCAASGFTFNTYAMNWVRQAPGKGLEWVARIRSKYNNYATYYADSVKDRFTISRDDSKNTVYLQMNNLKTEDTAVYYCVRHENFGNSYVSWFAHWGQGTLVTVSS
notes: Domains of one TCE chain; also called VHH3
Human PSMA [1]
  Kd: 4.8 nM
huCD3e-Fc
  Kd: 131 nM
  koff: 0.0289 s⁻¹
  kon: 220000 M⁻¹ s⁻¹
cyCD3e-Fc
  Kd: 130 nM
  koff: 0.0312 s⁻¹
  kon: 240000 M⁻¹ s⁻¹
Human CD3 epsilon [2]
  Kd: 12.9 nM

B2: AMX-500(1x-N) (bispecific antibody)
chain: ASSATPESGPGTSTEPSEGSAPGTSESATPESGPGSGPGTSESATPGTSESATPESGPGSEPATSGSETPGTSESATPESGPGTSTEPSEGSAPGSPAGSPTSTEEGTSESATPESGPGSEPATSGSETPGTSESATPESGPGSPAGSPTSTEEGSPAGSPTSTEEGTSTEPSEGSAPGTSESATPESGPGTSESATPESGPGTSESATPESGPGSEPATSGSETPGSEPATSGSETPGSPAGSPTSTEEGTSTEPSEGSAPGTSTEPSEGSAPGSEPATSGSETPGTSESATPEAGRSASHTPAGLTGPGTSESATPESQVQLVESGGGVVQPGRSLRLSCAASGRTFGIYVWGWFRQAPGKEREFVGAMSWSGSNRKVSDSVKGRFTISRDNSKNTLYLQMNSLRAEDTAVYYCAASNKEYGRTWYDFNESDYWGQGTQVTVSSGGGGSGGGSELVVTQEPSLTVSPGGTVTLTCRSSNGAVTSSNYANWVQQKPGQAPRGLIGGTNKRAPGTPARFSGSLLGGKAALTLSGVQPEDEAVYYCALWYPNLWVFGGGTKLTVLSESATPESGPGTSPGATPESGPGTSESATPEVQLVESGGGIVQPGGSLRLSCAASGFTFSTYAMNWVRQAPGKGLEWVGRIRTKRNNYATYYADSVKGRFTISRDDSKNTVYLQMNSLKTEDTAVYYCVRHENFGNSYVSWFAHWGQGTLVTVSSGTATPESGPG
notes: Lacks the mask linked to the CD3 domain
Human PSMA [3]
  Kd: 230 nM
  koff: 0.012 s⁻¹
  kon: 50000 M⁻¹ s⁻¹
Cynomolgus monkey PSMA
  Kd: 2400 nM
  koff: 0.039 s⁻¹
  kon: 16000 M⁻¹ s⁻¹
Human CD3 epsilon [4]
  Kd: 46.3 nM
  koff: 0.1 s⁻¹
  kon: 2.8e+06 M⁻¹ s⁻¹
[5]
  Kd: 38 nM
  koff: 0.1 s⁻¹
  kon: 2.9e+06 M⁻¹ s⁻¹

B3: AMX-500(1x-C) (bispecific antibody)
chain: GTSESATPESQVQLVESGGGVVQPGRSLRLSCAASGRTFGIYVWGWFRQAPGKEREFVGAMSWSGSNRKVSDSVKGRFTISRDNSKNTLYLQMNSLRAEDTAVYYCAASNKEYGRTWYDFNESDYWGQGTQVTVSSGGGGSGGGSELVVTQEPSLTVSPGGTVTLTCRSSNGAVTSSNYANWVQQKPGQAPRGLIGGTNKRAPGTPARFSGSLLGGKAALTLSGVQPEDEAVYYCALWYPNLWVFGGGTKLTVLSESATPESGPGTSPGATPESGPGTSESATPEVQLVESGGGIVQPGGSLRLSCAASGFTFSTYAMNWVRQAPGKGLEWVGRIRTKRNNYATYYADSVKGRFTISRDDSKNTVYLQMNSLKTEDTAVYYCVRHENFGNSYVSWFAHWGQGTLVTVSSGTATPESGPGEAGRSASHTPAGLTGPATPESGPGTSESATPESGPGSPAGSPTSTEEGTSESATPESGPGSEPATSGSETPGTSESATPESGPGTSTEPSEGSAPGTSTEPSEGSAPGTSTEPSEGSAPGTSTEPSEGSAPGTSTEPSEGSAPGTSTEPSEGSAPGSPAGSPTSTEEGTSTEPSEGSAPGTSESATPESGPGSEPATSGSETPGTSESATPESGPGSEPATSGSETPGTSESATPESGPGTSTEPSEGSAPGTSESATPESGPGSPAGSPTSTEEGSPAGSPTSTEEGSPAGSPTSTEEGTSESATPESGPGTSTEPSEGSAPGTSESATPESGPGSEPATSGSETPGTSESATPESGPGSEPATSGSETPGTSESATPESGPGTSTEPSEGSAPGSPAGSPTSTEEGTSESATPESGPGSEPATSGSETPGTSESATPESGPGSPAGSPTSTEEGSPAGSPTSTEEGTSTEPSEGSAPGTSESATPESGPGTSESATPESGPGTSPSATPESGPGSEPATSGSETPGSEPATSGSETPGSPAGSPTSTEEGTSTEPSEGSAPGTSTEPSEGSAPGSEPATSGSETPGTSESAGEPEA
notes: Lacks the mask linked to the PSMA domain
Human PSMA [3]
  Kd: 353 nM
  koff: 0.012 s⁻¹
  kon: 35000 M⁻¹ s⁻¹
Cynomolgus monkey PSMA
  Kd: 2900 nM
  koff: 0.039 s⁻¹
  kon: 14000 M⁻¹ s⁻¹
Human CD3 epsilon [4]
  Kd: 34.4 nM
  koff: 0.1 s⁻¹
  kon: 3.2e+06 M⁻¹ s⁻¹
[5]
  Kd: 26.7 nM
  koff: 0.1 s⁻¹
  kon: 3.4e+06 M⁻¹ s⁻¹

B4: AMX-500 (bispecific antibody)
chain: ASSATPESGPGTSTEPSEGSAPGTSESATPESGPGSGPGTSESATPGTSESATPESGPGSEPATSGSETPGTSESATPESGPGTSTEPSEGSAPGSPAGSPTSTEEGTSESATPESGPGSEPATSGSETPGTSESATPESGPGSPAGSPTSTEEGSPAGSPTSTEEGTSTEPSEGSAPGTSESATPESGPGTSESATPESGPGTSESATPESGPGSEPATSGSETPGSEPATSGSETPGSPAGSPTSTEEGTSTEPSEGSAPGTSTEPSEGSAPGSEPATSGSETPGTSESATPEAGRSASHTPAGLTGPGTSESATPESQVQLVESGGGVVQPGRSLRLSCAASGRTFGIYVWGWFRQAPGKEREFVGAMSWSGSNRKVSDSVKGRFTISRDNSKNTLYLQMNSLRAEDTAVYYCAASNKEYGRTWYDFNESDYWGQGTQVTVSSGGGGSGGGSELVVTQEPSLTVSPGGTVTLTCRSSNGAVTSSNYANWVQQKPGQAPRGLIGGTNKRAPGTPARFSGSLLGGKAALTLSGVQPEDEAVYYCALWYPNLWVFGGGTKLTVLSESATPESGPGTSPGATPESGPGTSESATPEVQLVESGGGIVQPGGSLRLSCAASGFTFSTYAMNWVRQAPGKGLEWVGRIRTKRNNYATYYADSVKGRFTISRDDSKNTVYLQMNSLKTEDTAVYYCVRHENFGNSYVSWFAHWGQGTLVTVSSGTATPESGPGEAGRSASHTPAGLTGPATPESGPGTSESATPESGPGSPAGSPTSTEEGTSESATPESGPGSEPATSGSETPGTSESATPESGPGTSTEPSEGSAPGTSTEPSEGSAPGTSTEPSEGSAPGTSTEPSEGSAPGTSTEPSEGSAPGTSTEPSEGSAPGSPAGSPTSTEEGTSTEPSEGSAPGTSESATPESGPGSEPATSGSETPGTSESATPESGPGSEPATSGSETPGTSESATPESGPGTSTEPSEGSAPGTSESATPESGPGSPAGSPTSTEEGSPAGSPTSTEEGSPAGSPTSTEEGTSESATPESGPGTSTEPSEGSAPGTSESATPESGPGSEPATSGSETPGTSESATPESGPGSEPATSGSETPGTSESATPESGPGTSTEPSEGSAPGSPAGSPTSTEEGTSESATPESGPGSEPATSGSETPGTSESATPESGPGSPAGSPTSTEEGSPAGSPTSTEEGTSTEPSEGSAPGTSESATPESGPGTSESATPESGPGTSPSATPESGPGSEPATSGSETPGSEPATSGSETPGSPAGSPTSTEEGTSTEPSEGSAPGTSTEPSEGSAPGSEPATSGSETPGTSESAGEPEA
notes: also called AC3896; AMX-500-P4
Human CD3 epsilon [4]
  Kd: 90 nM
[5]
  Kd: 70 nM

B5: uTCE PSMA-VHH; CB01B02R3, CD3.23 (bispecific antibody)
chain: LTGPATSGSETPGTQVQLVESGGGLVQAGDSLRLSCVTSGRTFDVYAMGWFRQAPGKERELVAAINWSGSNKFHADSVKGRFTISRDNAWKTLSLQMNSLKPEDTAVYFCAASTRLYGTTWYEFNDSDYWGQGTQVTVSSGGGGSGGGSELVVTQEPSLTVSPGGTVTLTCRSSNGAVTSSNYANWVQQKPGQAPRGLIGGTNKRAPGTPARFSGSLLGGKAALTLSGVQPEDEAVYYCALWYPNLWVFGGGTKLTVLGATPPETGAETESPGETTGGSAESEPPGEGEVQLLESGGGIVQPGGSLKLSCAASGFTFNTYAMNWVRQAPGKGLEWVARIRSKYNNYATYYADSVKDRFTISRDDSKNTVYLQMNNLKTEDTAVYYCVRHENFGNSYVSWFAHWGQGTLVTVSSGTAEAASASGEAGRSANHTPAG
notes: also called PSMA.3
Human PSMA [6]
  Kd: 1.15 nM
  koff: 0.000205 s⁻¹
  kon: 178000 M⁻¹ s⁻¹

B6: uTCE PSMA-VHH; P01E02R3, CD3.23 (bispecific antibody)
chain: LTGPATSGSETPGTEVQLVESGGGLVQAGGSLKLSCVANGPTFSTYAMAWFRQAPGKEHEFVAAITGDGDTTNNADSVKGRFTISRDNAKNRVYLQLNSLKPEDTAAYYCAAGVHHTYTIPRLWLYWGQGTQVTVSSGGGGSGGGSELVVTQEPSLTVSPGGTVTLTCRSSNGAVTSSNYANWVQQKPGQAPRGLIGGTNKRAPGTPARFSGSLLGGKAALTLSGVQPEDEAVYYCALWYPNLWVFGGGTKLTVLGATPPETGAETESPGETTGGSAESEPPGEGEVQLLESGGGIVQPGGSLKLSCAASGFTFNTYAMNWVRQAPGKGLEWVARIRSKYNNYATYYADSVKDRFTISRDDSKNTVYLQMNNLKTEDTAVYYCVRHENFGNSYVSWFAHWGQGTLVTVSSGTAEAASASGEAGRSANHTPAG
Human PSMA [6]
  Kd: 0.6 nM
  koff: 0.000156 s⁻¹
  kon: 261000 M⁻¹ s⁻¹

B7: uTCE PSMA-VHH; P01G03R3, CD3.23 (bispecific antibody)
chain: LTGPATSGSETPGTEVQLVESGGGLVQAGGSLRLSCVVSGIAFSPYHMAWYRQAPGKQHEWVAVITTGGTTAYNETVEGRFSISRDNARSTVYLQMNSLKPEDTAVYYCNIYGLSLKWGQGTQVTVSSGGGGSGGGSELVVTQEPSLTVSPGGTVTLTCRSSNGAVTSSNYANWVQQKPGQAPRGLIGGTNKRAPGTPARFSGSLLGGKAALTLSGVQPEDEAVYYCALWYPNLWVFGGGTKLTVLGATPPETGAETESPGETTGGSAESEPPGEGEVQLLESGGGIVQPGGSLKLSCAASGFTFNTYAMNWVRQAPGKGLEWVARIRSKYNNYATYYADSVKDRFTISRDDSKNTVYLQMNNLKTEDTAVYYCVRHENFGNSYVSWFAHWGQGTLVTVSSGTAEAASASGEAGRSANHTPAG
Human PSMA [6]
  Kd: 55.7 nM
  koff: 0.000539 s⁻¹
  kon: 9670 M⁻¹ s⁻¹
